From patent US20220010021A1 (Sanofi, published 2022)

Experiments:
[1] = biological target: human FGFR1c/KLB receptor complex on primary human adipocytes (human, UniProt P11362 22-822; Q86Z14 1-1044); assay: cell-based or functional assay
[2] = biological target: cell surface receptor composed of FGFR1c and co-receptor beta-Klotho (KLB) on iLite FGF21 Assay Ready Cells (human, UniProt P11362 22-822; Q86Z14 1-1044); assay: cell-based or functional assay
human beta-Klotho (KLB) = biological target: T1, human beta-Klotho (KLB) (human, UniProt Q86Z14 53-997); assay: BLI off-rate screen
T1 construct: bought recombinant protein, analyte of the BLI off-rate screen; also called human KLB
T1 sequence (looked up): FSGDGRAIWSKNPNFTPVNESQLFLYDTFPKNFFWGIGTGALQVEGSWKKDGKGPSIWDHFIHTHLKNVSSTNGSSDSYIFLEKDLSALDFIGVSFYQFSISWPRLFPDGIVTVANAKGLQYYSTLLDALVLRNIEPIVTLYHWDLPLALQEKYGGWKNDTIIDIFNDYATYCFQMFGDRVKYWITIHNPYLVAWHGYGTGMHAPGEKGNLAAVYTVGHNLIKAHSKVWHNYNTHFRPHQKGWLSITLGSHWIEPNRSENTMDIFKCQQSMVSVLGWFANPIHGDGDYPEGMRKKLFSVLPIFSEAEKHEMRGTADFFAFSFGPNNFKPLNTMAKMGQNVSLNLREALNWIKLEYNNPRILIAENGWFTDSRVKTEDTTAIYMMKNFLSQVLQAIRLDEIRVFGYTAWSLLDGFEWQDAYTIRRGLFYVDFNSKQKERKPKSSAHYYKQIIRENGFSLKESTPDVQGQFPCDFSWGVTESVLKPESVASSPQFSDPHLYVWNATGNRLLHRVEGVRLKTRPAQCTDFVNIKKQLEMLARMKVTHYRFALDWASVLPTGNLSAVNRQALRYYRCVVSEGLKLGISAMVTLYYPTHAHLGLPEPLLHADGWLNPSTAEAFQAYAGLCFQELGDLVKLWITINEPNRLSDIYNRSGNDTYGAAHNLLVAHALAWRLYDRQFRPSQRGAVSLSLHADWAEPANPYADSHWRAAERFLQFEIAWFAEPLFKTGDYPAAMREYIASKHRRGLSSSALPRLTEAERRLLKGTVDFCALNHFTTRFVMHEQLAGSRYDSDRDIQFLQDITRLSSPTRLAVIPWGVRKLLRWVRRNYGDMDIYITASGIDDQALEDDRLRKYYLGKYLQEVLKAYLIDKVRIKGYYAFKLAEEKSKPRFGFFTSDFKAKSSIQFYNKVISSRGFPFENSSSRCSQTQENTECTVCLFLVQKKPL

Chain of human FGFR1c/KLB receptor complex on primary human adipocytes (P11362 22-822, chain 1 of 2): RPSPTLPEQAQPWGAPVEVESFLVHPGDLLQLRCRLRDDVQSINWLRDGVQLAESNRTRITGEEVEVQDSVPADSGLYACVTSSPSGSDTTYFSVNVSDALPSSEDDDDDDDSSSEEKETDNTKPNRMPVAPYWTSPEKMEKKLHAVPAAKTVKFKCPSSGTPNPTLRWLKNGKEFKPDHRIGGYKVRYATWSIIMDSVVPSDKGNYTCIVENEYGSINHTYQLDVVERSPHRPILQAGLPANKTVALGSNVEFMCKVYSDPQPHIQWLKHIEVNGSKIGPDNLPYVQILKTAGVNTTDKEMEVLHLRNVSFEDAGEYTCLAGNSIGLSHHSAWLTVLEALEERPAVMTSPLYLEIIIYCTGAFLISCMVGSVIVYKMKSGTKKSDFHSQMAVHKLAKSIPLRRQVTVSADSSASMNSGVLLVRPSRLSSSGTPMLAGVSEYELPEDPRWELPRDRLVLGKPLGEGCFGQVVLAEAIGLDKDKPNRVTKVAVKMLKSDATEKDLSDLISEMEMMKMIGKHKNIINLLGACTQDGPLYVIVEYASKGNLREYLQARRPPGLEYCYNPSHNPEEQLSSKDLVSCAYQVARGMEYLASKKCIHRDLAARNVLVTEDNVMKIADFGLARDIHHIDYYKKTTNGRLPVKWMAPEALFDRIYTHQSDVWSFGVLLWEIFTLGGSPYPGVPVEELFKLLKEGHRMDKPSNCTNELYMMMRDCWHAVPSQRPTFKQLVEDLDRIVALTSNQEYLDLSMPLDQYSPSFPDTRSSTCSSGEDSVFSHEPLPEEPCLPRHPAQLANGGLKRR
Chain of human FGFR1c/KLB receptor complex on primary human adipocytes (Q86Z14 whole entry, chain 2 of 2): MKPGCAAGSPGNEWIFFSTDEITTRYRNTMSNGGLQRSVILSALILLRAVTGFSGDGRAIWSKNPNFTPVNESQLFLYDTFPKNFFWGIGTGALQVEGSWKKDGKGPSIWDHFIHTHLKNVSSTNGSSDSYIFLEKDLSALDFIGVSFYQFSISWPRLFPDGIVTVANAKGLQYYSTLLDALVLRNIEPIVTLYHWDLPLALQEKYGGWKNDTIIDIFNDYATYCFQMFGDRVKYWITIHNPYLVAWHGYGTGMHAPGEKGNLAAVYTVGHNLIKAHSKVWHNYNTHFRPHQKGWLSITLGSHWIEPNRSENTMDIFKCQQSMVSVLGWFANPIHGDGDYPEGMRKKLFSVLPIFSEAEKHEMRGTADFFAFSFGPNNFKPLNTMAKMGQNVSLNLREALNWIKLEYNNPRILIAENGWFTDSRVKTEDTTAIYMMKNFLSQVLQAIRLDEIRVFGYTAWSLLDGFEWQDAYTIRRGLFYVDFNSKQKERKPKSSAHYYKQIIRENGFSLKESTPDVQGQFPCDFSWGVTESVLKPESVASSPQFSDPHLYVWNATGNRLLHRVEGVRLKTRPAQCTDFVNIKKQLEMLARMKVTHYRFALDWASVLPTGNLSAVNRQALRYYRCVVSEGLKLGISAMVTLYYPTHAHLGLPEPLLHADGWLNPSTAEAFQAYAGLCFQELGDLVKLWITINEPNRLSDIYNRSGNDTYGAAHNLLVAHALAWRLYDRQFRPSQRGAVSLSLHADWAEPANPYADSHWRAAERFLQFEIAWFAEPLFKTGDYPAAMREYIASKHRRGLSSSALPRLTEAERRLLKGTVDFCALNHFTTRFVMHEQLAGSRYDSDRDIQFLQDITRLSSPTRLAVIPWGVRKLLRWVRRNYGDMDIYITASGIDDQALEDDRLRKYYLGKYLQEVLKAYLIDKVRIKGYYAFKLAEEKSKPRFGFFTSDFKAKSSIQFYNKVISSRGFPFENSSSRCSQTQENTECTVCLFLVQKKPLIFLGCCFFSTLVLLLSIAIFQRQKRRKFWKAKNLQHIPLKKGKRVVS
Chain of cell surface receptor composed of FGFR1c and co-receptor beta-Klotho (KLB) on iLite FGF21 Assay Ready Cells (P11362 22-822, chain 1 of 2): as the sequence (P11362 22-822, chain 1 of 2) above
Chain of cell surface receptor composed of FGFR1c and co-receptor beta-Klotho (KLB) on iLite FGF21 Assay Ready Cells (Q86Z14 whole entry, chain 2 of 2): as the sequence (Q86Z14 whole entry, chain 2 of 2) above

Row | Binder | In-Cell Western pERK EC50, primary human adipocytes [1] | Mean E max [2] | Mean EC50 [2] | koff (human beta-Klotho (KLB))
1 | Ab0351 (antibody, human IgG4 S228P, lambda) heavy: not shown light: SYVLTQPPSVSVAPGQTARITCGGSNIGSESVHWYQQKPGQAPVLVVYEESDRPSGIPERFSGSNSGNTATLTISRVEAGDEADYYCQVWEGESDHVVFGGGTKLTVLGQPKANPTVTLFPPSSEELQANKATLVCLISDFYPGAVTVAWKADGSPVKAGVETTKPSKQSNNKYAASSYLSLTPEQWKSHRSYSCQVTHEGSTVEKTVAPTECS | 0.156 nmol/L |  |  | 
2 | Ab0428 (antibody, human IgG1, lambda) heavy: not shown light: SYVLTQPPSVSVAPGQTARITCGGSNIGSESVHWYQQKPGQAPVLVVYSESDRPSGIPERFSGSNSGNTATLTISRVEAGDEADYYCQVWEGESDHVVFGGGTKLTVLGQPKANPTVTLFPPSSEELQANKATLVCLISDFYPGAVTVAWKADGSPVKAGVETTKPSKQSNNKYAASSYLSLTPEQWKSHRSYSCQVTHEGSTVEKTVAPTECS | 0.072 nmol/L |  |  | 
3 | Ab0430 (antibody, human IgG1, lambda) heavy: not shown light: SYVLTQPPSVSVAPGQTARITCGGSNIGSESVHWYQQKPGQAPVLVVYEESDRPSGIPERFSGSNSGNTATLTISRVEAGDEADYYCQVWEGESDHVVFGGGTKLTVLGQPKANPTVTLFPPSSEELQANKATLVCLISDFYPGAVTVAWKADGSPVKAGVETTKPSKQSNNKYAASSYLSLTPEQWKSHRSYSCQVTHEGSTVEKTVAPTECS | 0.116 nmol/L |  |  | 
4 | Ab0429 (antibody, human IgG1, lambda) heavy: not shown light: SYVLTQPPSVSVAPGQTARITCGGSNIGSESVHWYQQKPGQAPVLVVYSASDRPSGIPERFSGSNSGNTATLTISRVEAGDEADYYCQVWEGESDHVVFGGGTKLTVLGQPKANPTVTLFPPSSEELQANKATLVCLISDFYPGAVTVAWKADGSPVKAGVETTKPSKQSNNKYAASSYLSLTPEQWKSHRSYSCQVTHEGSTVEKTVAPTECS | 0.078 nmol/L |  |  | 
5 | 16H7 variant with light chain substitution Q88A (antibody, V domains shown) VH: not shown VL: SYVLTQPPSVSVAPGQTARITCGGNNIGSESVHWYQQKPGQAPVLVVYDDSDRPSGIPERFSGSNSGNTATLTISRVEAGDEADYYCAVWDGNSDHVVFGGGTKLTVLG |  | 108% | 133 pM | 0.00011 s⁻¹
6 | 16H7 variant with light chain substitution Q88G (antibody, V domains shown) VH: not shown VL: SYVLTQPPSVSVAPGQTARITCGGNNIGSESVHWYQQKPGQAPVLVVYDDSDRPSGIPERFSGSNSGNTATLTISRVEAGDEADYYCGVWDGNSDHVVFGGGTKLTVLG |  | 110% | 129 pM | 0.00017 s⁻¹
7 | 16H7 variant with light chain substitution Q88M (antibody, V domains shown) VH: not shown VL: SYVLTQPPSVSVAPGQTARITCGGNNIGSESVHWYQQKPGQAPVLVVYDDSDRPSGIPERFSGSNSGNTATLTISRVEAGDEADYYCMVWDGNSDHVVFGGGTKLTVLG |  | 90% | 104 pM | 9.9e-05 s⁻¹
8 | 16H7 variant with light chain substitution Q88L (antibody, V domains shown) VH: not shown VL: SYVLTQPPSVSVAPGQTARITCGGNNIGSESVHWYQQKPGQAPVLVVYDDSDRPSGIPERFSGSNSGNTATLTISRVEAGDEADYYCLVWDGNSDHVVFGGGTKLTVLG |  | 107% | 134 pM | 9.9e-05 s⁻¹
